Test results from article PMC10333884, “Large‐scale phosphomimetic screening identifies phospho‐modulated motif‐based protein interactions” (Molecular Systems Biology, 2023).

Tests used:
TSG101 UEV (human) = TSG101 UEV (human) (UniProt Q99816); experiment: fluorescence polarisation; displacement of a FITC-labelled probe peptide (5 nM in the measurement) from the protein domain (1-2 fold over the probe's KD) by a dilution series of unlabelled peptide; room temperature; 50 mM sodium phosphate pH 7.4; KD calculated from the displacement curve; for KPNA4 ARM one probe for each pocket
TSG101 UEV (human), sequence (Q99816 2-145): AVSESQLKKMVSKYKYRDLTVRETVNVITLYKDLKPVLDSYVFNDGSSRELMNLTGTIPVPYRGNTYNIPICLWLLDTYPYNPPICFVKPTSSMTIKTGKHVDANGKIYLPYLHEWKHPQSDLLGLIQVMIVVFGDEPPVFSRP

GABARAPL2 (human) = GABARAPL2 (human) (UniProt P60520); experiment: fluorescence polarisation
GABARAPL2 (human), sequence (P60520 whole entry, the tested form may be a part): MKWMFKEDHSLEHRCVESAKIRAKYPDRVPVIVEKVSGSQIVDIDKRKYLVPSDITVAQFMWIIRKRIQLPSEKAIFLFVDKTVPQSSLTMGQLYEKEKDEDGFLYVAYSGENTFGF

AP2 μ2 (human) = experiment: fluorescence polarisation; displacement of a FITC-labelled probe peptide (5 nM in the measurement) from the protein domain (1-2 fold over the probe's KD) by a dilution series of unlabelled peptide; room temperature; 50 mM sodium phosphate pH 7.4; KD calculated from the displacement curve; for KPNA4 ARM one probe for each pocket
RANBP2 RanBD4 (human) = experiment: as above
MAP1LC3B (human) = MAP1LC3B (human) (UniProt Q9GZQ8); experiment: as above
[1] = biological target: Clathrin N-terminal domain (NTD) (human) (UniProt Q00610); experiment: as above
Clathrin N-terminal domain (NTD) (human), sequence (Q00610 1-364): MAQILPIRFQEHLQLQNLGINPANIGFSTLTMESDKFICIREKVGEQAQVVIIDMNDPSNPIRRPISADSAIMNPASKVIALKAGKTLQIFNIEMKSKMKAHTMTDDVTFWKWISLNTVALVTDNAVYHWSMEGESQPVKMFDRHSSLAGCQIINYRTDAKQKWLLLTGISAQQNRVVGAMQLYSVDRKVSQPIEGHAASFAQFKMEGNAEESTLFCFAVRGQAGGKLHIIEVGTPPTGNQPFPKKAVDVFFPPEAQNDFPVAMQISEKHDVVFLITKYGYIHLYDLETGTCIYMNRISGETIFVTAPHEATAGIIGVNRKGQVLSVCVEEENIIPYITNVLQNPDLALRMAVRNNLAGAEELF

KPNA4 ARM (human) = experiment: as above
GGA1 VHS (human) = GGA1 VHS (human) (UniProt Q9UJY5); experiment: as above
GGA1 VHS (human), sequence (Q9UJY5 17-147): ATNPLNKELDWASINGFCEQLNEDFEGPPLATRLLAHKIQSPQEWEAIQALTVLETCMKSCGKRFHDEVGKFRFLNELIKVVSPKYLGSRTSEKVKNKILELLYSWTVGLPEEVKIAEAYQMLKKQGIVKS

SNX27 PDZ (human) = SNX27 PDZ (human) (UniProt Q96L92); experiment: as above
[2] = biological target: PDCD6IP Alix V domain (human); experiment: as above
KPNA4 ARM ARM domain = KPNA4 ARM ARM domain (UniProt O00629); experiment: FP displacement, major-pocket FITC probe; details: reference: unphosphorylated peptide

DAXX_(606–616), wild‐type, sequence (Q9UER7 whole entry, looked up, tested part not stated): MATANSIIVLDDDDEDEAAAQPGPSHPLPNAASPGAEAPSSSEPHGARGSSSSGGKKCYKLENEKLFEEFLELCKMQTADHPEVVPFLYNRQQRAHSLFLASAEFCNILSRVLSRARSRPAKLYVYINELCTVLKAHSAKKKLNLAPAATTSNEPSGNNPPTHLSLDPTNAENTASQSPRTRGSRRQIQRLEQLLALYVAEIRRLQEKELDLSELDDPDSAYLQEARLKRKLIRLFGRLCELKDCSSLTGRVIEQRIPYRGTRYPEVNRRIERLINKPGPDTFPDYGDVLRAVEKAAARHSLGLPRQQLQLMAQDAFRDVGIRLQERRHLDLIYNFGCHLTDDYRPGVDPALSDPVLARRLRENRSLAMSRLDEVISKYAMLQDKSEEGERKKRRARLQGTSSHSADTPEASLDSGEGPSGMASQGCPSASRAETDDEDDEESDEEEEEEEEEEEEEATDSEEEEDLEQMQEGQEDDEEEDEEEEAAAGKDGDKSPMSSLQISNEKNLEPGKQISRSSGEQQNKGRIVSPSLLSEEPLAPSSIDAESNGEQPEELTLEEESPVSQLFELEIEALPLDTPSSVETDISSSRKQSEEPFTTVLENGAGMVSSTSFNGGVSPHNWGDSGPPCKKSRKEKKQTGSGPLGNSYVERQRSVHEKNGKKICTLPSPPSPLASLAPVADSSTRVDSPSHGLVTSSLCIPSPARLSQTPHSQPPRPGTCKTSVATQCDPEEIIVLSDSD
DAXX_(606–616), phosphorylated (pS), sequence (Q9UER7 whole entry, looked up, tested part not stated): as above
DAXX_(606–616), phosphomimetic (E), sequence (Q9UER7 whole entry, looked up, tested part not stated): as above

PIP4P2_(17–32), wild‐type (from UniProt Q8N4L2 17-32) (peptide)
Kd (TSG101 UEV (human)): 14 µM

DLGAP4_(907–922), wild‐type (from UniProt Q9Y2H0 907-922) (peptide)
Kd (GABARAPL2 (human)): 174 µM

PCBP1_(179–194), phosphorylated (pS) (from UniProt Q15365 179-194) (peptide)
Kd (AP2 μ2 (human)): 0.67 µM

INTS6_(145–159), phosphomimetic (E) (from UniProt Q9UL03 145-159) (peptide)
Kd (RANBP2 RanBD4 (human)): 1080 µM

TPD52L2_(91–106), wild‐type (from UniProt O43399 91-106) (peptide)
Kd (MAP1LC3B (human)): 760 µM

DHX38_(260–275), wild‐type (from UniProt Q92620 260-275) (peptide)
Kd (RANBP2 RanBD4 (human)): 1500 µM

pS839 HURP_(826–846) peptide (from UniProt Q15398 826-846)
Kd [1]: < 3 µM

SQSTM1_(258–272), phosphorylated (pS) (from UniProt Q13501 258-272) (peptide)
KD, major pocket (KPNA4 ARM (human)): 50 µM
KD, minor pocket (KPNA4 ARM (human)): 248 µM

GJA1_(269–283), phosphorylated (pS) (from UniProt P17302 269-283) (peptide)
Kd (TSG101 UEV (human)): 209 µM

SQSTM1_(258–272), phosphomimetic (E) (from UniProt Q13501 258-272) (peptide)
KD, major pocket (KPNA4 ARM (human)): 5.3 µM
KD, minor pocket (KPNA4 ARM (human)): 41 µM

RANBP3_(114–129), phosphomimetic (E) at p + 5 (from UniProt Q9H6Z4 114-129) (peptide)
KD, major pocket (KPNA4 ARM (human)): 0.8 µM
KD, minor pocket (KPNA4 ARM (human)): 61 µM

RANBP3_(114–129), phosphorylated at p + 5 (from UniProt Q9H6Z4 114-129) (peptide)
KD, major pocket (KPNA4 ARM (human)): 1.13 µM
KD, minor pocket (KPNA4 ARM (human)): 167 µM

RNF11_(6–21), phosphomimetic (E) (from UniProt Q9Y3C5 6-21) (peptide)
Kd (GGA1 VHS (human)): 1000 µM

RNF11_(6–21), wild‐type (from UniProt Q9Y3C5 6-21) (peptide)
Kd (GGA1 VHS (human)): 420 µM

BAIAPL1_(392–407), wild‐type (from UniProt Q9UHR4 392-407) (peptide)
Kd (AP2 μ2 (human)): 1.29 µM

CDC25C_(30–44), wild‐type (from UniProt P30307 30-44) (peptide)
Kd (SNX27 PDZ (human)): 111 µM

CDC25C_(30–44), phosphomimetic (E) (from UniProt P30307 30-44) (peptide)
Kd (SNX27 PDZ (human)): 680 µM

INTS6_(145–159), wild‐type (from UniProt Q9UL03 145-159) (peptide)
Kd (RANBP2 RanBD4 (human)): 334 µM

FOXK1_(212–227), phosphorylated (pS) (from UniProt P85037 212-227) (peptide)
Kd [2]: 13 µM

PCBP1_(179–194), wild‐type (from UniProt Q15365 179-194) (peptide)
Kd (AP2 μ2 (human)): 3.7 µM

FOXK1_(212–227), phosphomimetic (E) (from UniProt P85037 212-227) (peptide)
Kd [2]: 13 µM

DLGAP4_(907–922), phosphomimetic (E) (from UniProt Q9Y2H0 907-922) (peptide)
Kd (GABARAPL2 (human)): 260 µM

PDCD6IP_(711–725), wild‐type (from UniProt Q8WUM4 711-725) (peptide)
Kd (TSG101 UEV (human)): 16 µM

RANBP3_(114–129), wild‐type (from UniProt Q9H6Z4 114-129) (peptide)
KD, major pocket (KPNA4 ARM (human)): 0.15 µM
KD, minor pocket (KPNA4 ARM (human)): 68 µM

DAXX_(606–616), phosphorylated (pS) (from UniProt Q9UER7 606-616) (peptide)
Kd (SNX27 PDZ (human)): 96 µM

DAXX_(606–616), phosphomimetic (E) (from UniProt Q9UER7 606-616) (peptide)
Kd (SNX27 PDZ (human)): 23 µM

CDC25A_(114–125), phosphomimetic (E) (from UniProt P30304 114-125) (peptide)
KD, major pocket (KPNA4 ARM (human)): 0.75 µM
KD, minor pocket (KPNA4 ARM (human)): 2.3 µM

RANBP3_(114–129), phosphorylated at p + 6 (from UniProt Q9H6Z4 114-129) (peptide)
KD, major pocket (KPNA4 ARM (human)): 0.22 µM
KD, minor pocket (KPNA4 ARM (human)): 20 µM

INTS6_(145–159), phosphorylated (pS) (from UniProt Q9UL03 145-159) (peptide)
Kd (RANBP2 RanBD4 (human)): 733 µM

GTSE1_(692–707) peptide, unphosphorylated
Kd [1]: 100 µM

pS116 CDC25A_(114–125) (from UniProt P30304 114-125) (peptide)
KD, major pocket (KPNA4 ARM (human)): 0.63 µM
KD, minor pocket (KPNA4 ARM (human)): 2.8 µM

RANBP3_(114–129), phosphomimetic (E) at p + 6 (from UniProt Q9H6Z4 114-129) (peptide)
KD, major pocket (KPNA4 ARM (human)): 0.14 µM
KD, minor pocket (KPNA4 ARM (human)): 80 µM

GJA1_(269–283), phosphomimetic (E) (from UniProt P17302 269-283) (peptide)
Kd (TSG101 UEV (human)): 115 µM

DHX38_(260–275), phosphorylated (pS) (from UniProt Q92620 260-275) (peptide)
Kd (RANBP2 RanBD4 (human)): 167 µM

OTUD5_(507–522), wild‐type (from UniProt Q96G74 507-522) (peptide)
Kd [2]: 68 µM

RNF11_(6–21), phosphorylated (pS) (from UniProt Q9Y3C5 6-21) (peptide)
Kd (GGA1 VHS (human)): 31 µM

ATG4C_(444–458), phosphorylated (pS) (from UniProt Q96DT6 444-458) (peptide)
Kd (MAP1LC3B (human)): 1.9 µM
Kd (GABARAPL2 (human)): 0.1 µM

DLGAP4_(907–922), phosphorylated (pS) (from UniProt Q9Y2H0 907-922) (peptide)
Kd (GABARAPL2 (human)): 150 µM

CDC25A 114-125 (from UniProt P30304) pS116 peptide
KD (KPNA4 ARM ARM domain; sites S116): stronger; reference 8.8 ± 0.2

DAXX_(606–616), wild‐type (from UniProt Q9UER7 606-616) (peptide)
Kd (SNX27 PDZ (human)): 300 µM

TPD52L2_(91–106), phosphorylated (pS) (from UniProt O43399 91-106) (peptide)
Kd (MAP1LC3B (human)): 61 µM

JUN_(59–73), phosphorylated (pS) (from UniProt P05412 59-73) (peptide)
Kd (GGA1 VHS (human)): 1900 µM

PIP4P2_(17–32), phosphorylated (pS) (from UniProt Q8N4L2 17-32) (peptide)
Kd (TSG101 UEV (human)): 16 µM

GJA1_(269–283), wild‐type (from UniProt P17302 269-283) (peptide)
Kd (TSG101 UEV (human)): 232 µM

CDC25A_(114–125), wild‐type (from UniProt P30304 114-125) (peptide)
KD, major pocket (KPNA4 ARM (human)): 8.8 µM
KD, minor pocket (KPNA4 ARM (human)): 0.2 µM

CDC25C_(30–44), phosphorylated (pS) (from UniProt P30307 30-44) (peptide)
Kd (SNX27 PDZ (human)): 395 µM

FOXK1_(212–227), wild‐type (from UniProt P85037 212-227) (peptide)
Kd [2]: 25 µM

JUN_(59–73), wild‐type (from UniProt P05412 59-73) (peptide)
Kd (GGA1 VHS (human)): 470 µM

SQSTM1_(258–272), wild‐type (from UniProt Q13501 258-272) (peptide)
KD, major pocket (KPNA4 ARM (human)): 0.24 µM
KD, minor pocket (KPNA4 ARM (human)): 14 µM

OTUD5_(507–522), phosphorylated (pS) (from UniProt Q96G74 507-522) (peptide)
Kd [2]: 116 µM

RANBP3 114-129 (from UniProt Q9H6Z4) pT124 peptide (p+5)
KD (KPNA4 ARM ARM domain; sites T124): weaker; reference 0.15 ± 0.01

PCBP1_(179–194), phosphomimetic (E) (from UniProt Q15365 179-194) (peptide)
Kd (AP2 μ2 (human)): 2.05 µM

OTUD5_(507–522), phosphomimetic (E) (from UniProt Q96G74 507-522) (peptide)
Kd [2]: 88 µM

BAIAPL1_(392–407), phosphorylated (pS) (from UniProt Q9UHR4 392-407) (peptide)
Kd (AP2 μ2 (human)): 0.93 µM

PIP4P2_(17–32), phosphomimetic (E) (from UniProt Q8N4L2 17-32) (peptide)
Kd (TSG101 UEV (human)): 18 µM

BAIAPL1_(392–407), phosphomimetic (E) (from UniProt Q9UHR4 392-407) (peptide)
Kd (AP2 μ2 (human)): 0.49 µM
